The values below are quoted from earlier work in PMC2696053.

The term Kd denotes the constant that tells how readily two partners part at equilibrium.

For data set [1], the target named is Delta-like 1 (Homo sapiens) (UniProt O00548). In words: surface plasmon resonance. Background: In SPR one partner is held on a chip, and binding of the other changes the refractive index at the surface.
The target of data set [2] is Delta ECD (Drosophila melanogaster) (UniProt P10041). The data set is described as follows: ELISA. Background: In an ELISA, binding on a coated surface is turned into a signal by an enzyme label.
Chain of UniProt P10041 (P10041 19-596, stated change not applied): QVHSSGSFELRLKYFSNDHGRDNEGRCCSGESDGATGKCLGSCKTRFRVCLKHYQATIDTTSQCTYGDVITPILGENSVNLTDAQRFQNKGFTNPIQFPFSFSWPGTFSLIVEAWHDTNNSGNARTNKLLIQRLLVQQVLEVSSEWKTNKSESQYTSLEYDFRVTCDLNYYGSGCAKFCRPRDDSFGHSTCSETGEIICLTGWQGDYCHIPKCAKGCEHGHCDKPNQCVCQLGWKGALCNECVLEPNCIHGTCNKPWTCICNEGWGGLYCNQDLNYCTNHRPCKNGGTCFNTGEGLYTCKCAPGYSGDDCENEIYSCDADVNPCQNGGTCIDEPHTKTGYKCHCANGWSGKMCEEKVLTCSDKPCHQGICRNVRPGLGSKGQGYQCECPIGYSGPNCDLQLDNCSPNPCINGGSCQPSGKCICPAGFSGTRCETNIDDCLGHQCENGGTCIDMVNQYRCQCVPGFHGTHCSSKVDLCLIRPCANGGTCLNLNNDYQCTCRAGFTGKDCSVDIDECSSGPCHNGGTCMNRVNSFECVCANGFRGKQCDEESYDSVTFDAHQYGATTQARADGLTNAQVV

Chain of UniProt O00548 (O00548 18-545, stated change not applied): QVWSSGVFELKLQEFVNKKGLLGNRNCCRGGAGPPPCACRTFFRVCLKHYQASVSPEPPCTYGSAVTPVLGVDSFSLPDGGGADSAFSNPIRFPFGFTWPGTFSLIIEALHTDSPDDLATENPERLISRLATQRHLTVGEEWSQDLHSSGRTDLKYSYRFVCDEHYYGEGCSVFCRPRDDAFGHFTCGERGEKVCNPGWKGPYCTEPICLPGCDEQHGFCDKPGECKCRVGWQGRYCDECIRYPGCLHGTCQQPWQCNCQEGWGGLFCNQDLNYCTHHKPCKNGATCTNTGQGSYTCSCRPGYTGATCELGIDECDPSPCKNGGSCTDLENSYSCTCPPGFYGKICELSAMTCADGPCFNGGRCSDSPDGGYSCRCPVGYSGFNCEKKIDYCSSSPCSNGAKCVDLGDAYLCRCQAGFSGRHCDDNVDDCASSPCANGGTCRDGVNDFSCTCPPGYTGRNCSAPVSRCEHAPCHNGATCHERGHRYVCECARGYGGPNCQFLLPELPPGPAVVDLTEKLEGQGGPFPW

On to “Notch1 EGF-like repeats 11-14 (from UniProt P46531)”, for which the dissociation constant Kd in data set [1] is 130 µM.
With “Notch EGF-like repeats 11-20 (from UniProt P07207)”, the Kd in data set [2] was 0.00187 µM.
